Data set [1] is described as follows: Construct Stability HPLC in Cell Media. Format: physicochemical. The settings on record: 10 μM, 2 h at pH 5.0 and 37° C. The procedure:
FIG. 8A, FIG. 8B, and FIG. 8C show Purity check and Chemical stability of pHLIP-MMAE conjugates. (FIG. 8A) and (FIG. 8B): HPLC traces of pHLIP(WT)-MMAE and pHLIP(D25E)-MMAE, respectively: Purified conjugates (upper panels), 10 μM of conjugate in cell media (middle panels) and after incubation in cell media for 2 h at pH 5.0 and 37° C. (lower panels). The small peak observed around 27 min in (FIG. 8B) upper panel corresponds to some residual free pHLIP (<15%), which is known to not be cytotoxic (FIG. 7). (FIG. 8C) HPLC traces of Alexa750-pHLIP(WT)-MMAE: Purified conjugate (upper panel), 10 μM Alexa 750-pHLIP(WT)-MMAE before (upper panel) and after 48 h incubation in mouse serum at 37° C. (lower panel). Purity checks and chemical stability runs were performed on different column and with different flow rate, explaining the difference in retention times and peak broadness (see Experimental Section). […]
Peptide solutions were incubated at either pH 7.4 or pH 5.0 (37° C. and 5% CO2) and 100 μL aliquots were monitored via RP-HPLC at various time points (Agilent Eclipse XDB-C18 […] 9.4×250 mm; flow rate 2 mL/min; phase A: water 0.01% TFA; phase B: acetonitrile 0.01% TFA; gradient 45 min from 95/5 A/B to 0/100 A/B). […] The stability of Alexa750-pHLIP(WT)-MMAE was determined in mouse serum by solubilizing the construct to incubating it at 37° C. and monitoring via RP-HPLC at specific time points.

The next data set relates to HeLa cells. The settings on record: 10 μM, 2 hours, pH 7.4 or pH 5.0. The procedure:
(§1) The integrity of the plasma membrane is assessed by the uptake of trypan blue dye. 3,000 cells/well of HeLa (FIG. 4A) and MDA-MB-231 (FIG. 4B) cells were seeded, allowed to adhere overnight and treated with 10 μM conjugates or media alone (no peptide) for 2 hours at pH 7.4 (black bars) or pH 5.0 (grey bars). Cells were detached and counted based on trypan blue uptake with a hemacytometer: % of intact cells corresponds to the number of cells not showing any dye uptake over the total number of cells. Results are shown as mean±SD (n=4).
(§2) Cell Membrane Integrity Assay. HeLa and MDA-MB-231 cells were seeded in 96-well plates at a density of 3,000 cells/well and incubated until confluent (˜72 hours). Before treatment, construct aliquots were solubilized in an appropriate volume of DMEM without FBS (pH 7.4) so that upon pH adjustment 10 μM is obtained. Cell media was removed, the treatment solution was added to each well and cell were incubated at 37° C. for 5-10 minutes. The pH was then adjusted to the desired value using a pre-established volume of DMEM, pH 2.0 buffered with citric acid (final volume=50 μL). The plate was incubated at 37° C. for 2 hours. After treatment, the media was removed, cells were detached using trypsin and counted based on trypan blue uptake using a hemacytometer.

The subject of the next data set is MDA-MB-231 cells. The settings on record: 10 μM, 2 hours, pH 7.4 or pH 5.0. On the procedure: as §1, §2
The conditions of data set [2]: for Trp fluorescence emission maxima: POPC liposomes; for insertion in lipid bilayers: acidic conditions. On the procedure: State I corresponds to the peptides in an aqueous environment is shown in black, state II: peptides in the presence of lipid membranes at pH 7.4, shown in blue and state III: peptides in the presence of lipids at pH 5.0 is shown in red. [peptide]=7 μM and peptide-lipid ratio=1:300 with POPC liposomes.
Preparation of POPC Liposomes. Ten milligrams of POPC in chloroform were dried and then held under vacuum overnight. The dried lipid film was rehydrated with 1 ml of 5 mM sodium phosphate, pH 8.0, and mixed by vigorous vortex. The resulting multilamellar vesicle solution was freeze-thawed in liquid nitrogen for seven cycles and were extruded through a polycarbonate membrane with […] diameter pores using a mini extruder (Avanti Polar Lipids) to produce large unilamellar vesicles. Liposomes were used immediately following their preparation. Lipid concentration was checked using the Marshall's assay and the size distribution was verified by dynamic light scattering analysis performed at a scattering angle of 90° using an ALV/GSC-3 goniometer system equipped with ALV/ALV-7004 correlator (ALV-GmbH, Langen, Germany).
Sample preparation for Circular Dichroism and Tryptophan Fluorescence Measurements. Prior to CD or fluorescence measurements, lyophilized aliquots of pHLIP constructs were resuspended to 20 μM with 5 mM sodium phosphate, pH 8.0, and incubated for 1 hour at room temperature. This stock solution was diluted to a final concentration of 7 μM and, when appropriate, incubated with POPC liposomes at a 1:300 peptide-to-lipid molar ratio for 30 minutes at room temperature. Subsequently, samples were adjusted to the desired experimental pH values with the addition of aliquots of an HCl solution to elicit pH-dependent insertion. Samples were allowed to equilibrate at the desired pH for 30 minutes at room temperature before spectroscopic measurements.
Tryptophan Fluorescence Spectroscopy. All measurements were carried out using a Cary Eclipse Fluorescence Spectrophotometer (Varian), and performed at 25° C. with pHLIP construct concentrations equal to 7 μM. Samples were excited at 295 nm and the emission spectra were taken from 300 to 500 nm, with the slit widths for emission and excitation both set 5 nm.
Circular Dichroism Spectroscopy. Far-UV CD spectra of pHLIP constructs were recorded on Jasco J-815 CD spectrometer equipped with a Peltier thermal-controlled cuvette holder (Jasco, Inc.). All measurements were performed in 0.1 mm quartz cuvette at 25° C. with pHLIP constructs concentrations equal to 7 μM. CD intensities are expressed in mean residue molar ellipticity [θ] calculated from the following equation: […]

Entries after “also recorded” stand apart in the source; their conditions may differ. Like-named read-outs stand apart in the source and are kept apart here. Positions of bridges follow the written chain, without caps; N, C: chain ends. Non-standard residues stand in square brackets, D forms with d. Chains are numbered I, II in the order given. *: point of attachment. Dolaproine = CO[C@@H]([C@@H]1CCCN1)[C@@H](C)C(=O)O; Dil = CC[C@H](C)[C@H](NC)[C@@H](CC(=O)O)OC; X1 = C[C@@H](N*)[C@@H](O)c1ccccc1; NMeV = CN[C@H](C(=O)O)C(C)C; Mpa = O=C(O)CCS

On to “I: H-AAEQNPIYWARYADWLFTTPLLLLDLALLVDADEGTCG-OH / II: [Mpa][NMeV]V[Dil][Dolaproine]-X1 (disulfide I:37-II:1) [pHLIP(WT)-MMAE]”, for which, in data set [1], the “degradation in cell media by HPLC or mass spectroscopy” value is reported as “No significant degradation; also recorded: no degradation products are observed”. Also, the “disruption of the plasma membrane” value was “neither conjugates, nor low pH treatment, caused disruption of the membranes” with HeLa cells and “neither conjugates, nor low pH treatment, caused disruption of the membranes” in the data set on MDA-MB-231 cells. Besides, the results for the “Trp fluorescence emission maxima” value in data set [2] (pH 5.0) and in data set [2] (pH 7.4) were 334 nm and 348 nm, respectively. In addition, in data set [2], the “insertion in lipid bilayers” value is reported as “can insert in lipid bilayers under acidic conditions to form stable transmembrane α-helices”.

On to “I: H-AAEQNPIYWARYADWLFTTPLLLLELALLVDADEGTCG-NH2 / II: [Mpa][NMeV]V[Dil][Dolaproine]-X1 (disulfide I:37-II:1) [pHLIP(D25E)-MMAE]”, for which the “degradation in cell media by HPLC or mass spectroscopy” value in data set [1] is “No significant degradation; also recorded: no degradation products are observed”. Besides, the “disruption of the plasma membrane” value was “neither conjugates, nor low pH treatment, caused disruption of the membranes” in the data set with HeLa cells and “neither conjugates, nor low pH treatment, caused disruption of the membranes” in the data set on MDA-MB-231 cells. Besides, the figures for the “Trp fluorescence emission maxima” value in data set [2] (pH 5.0) and in data set [2] (pH 7.4) were 329 nm and 347 nm, respectively. Moreover, the “insertion in lipid bilayers” value in data set [2] is recorded as “can insert in lipid bilayers under acidic conditions to form stable transmembrane α-helices”.

The record behind these values is patent US20170267727A1, “Conjugates of pH Low Insertion Peptide and Monomethyl Auristatins in the Treatment of Solid Tumors” (Lehigh University, priority 2016, published 2017).
